Data on 2 molecules can be found in US20200011878A1 (published 2020).

Positions count from the first letter of the chain named.

The experiment deals with human NRP1 protein (human, UniProt O14786 22-856). Put plainly: ELISA. Background: ELISA stands for enzyme-linked immunosorbent assay.

B1: 1A03 anti-NRP1 IgG antibody (antibody, V domains shown)
VH: EVQLLESGGGLVQFGGSLRLSQAASGFTFSSYYMSWVRQAFGKGLEWVSAISFGSSNKYYADSVQGRFTISRDNSKNTLYLQMNELRAEDTAVYYCARRKKSFDYWGQGTLVTVSS
VL: QSVLTQFFSASGTPGQRVTISCSGFSSNIGNNDVSWYQQLFGTAPKLLIYSCNNRPSGVPDRFSGSKSGTSASLAISGLRSSDEADYYCGAWVASLSAYVFGGGTKLTVTL
By Kd is commonly meant a measure of binding affinity in units of concentration. High values mean weaker binding, low ones tighter binding. Consider B1, for which binding was characterised by a dissociation constant (Kd) of 1110 nM.

B2: IRCR-101 (3H10 converted into IgG format) (antibody, V domains shown)
VH: B1 VH with G15Q, G16Q, G26Q, F53P, Q65K, K101Y, S102M
VL: GSVLTQPPSASGTPGQRVTISCTGESSNIGNNDVYWYQQLPGTAFKLLIYSQSNRPSGMPDRFSGSKSGTSASLAISGLRSEDEADYYCASWDSSLSGYVFGGGTKLTVTL
On to B2, for which the Kd is 426 nM.
